How the values were obtained:
hippocampal neurons = test: Immunocytochemistry: percent correlation of spines to synaptic markers (VGLUT1, Synapsin, PSD-95); assay type: cell-based, rat; conditions: HGF 10 ng/ml, 5 days
Method: Transfected neurons were treated, fixed and stained. Briefly, cells were permeablized with 0.1% Triton X-100 detergent (Bio-Rad; Hercules, Calif.) for 10 minutes. An 8% bovine serum albumin (Intergen Company; Burlington, Mass.) in PBS was used to prevent non-specific binding for one hour at R.T.; Primary antibody incubations were at a 1:2500 dilution (see below) in 1% BSA in PBS at 4° C. overnight. Secondary antibody, 1:3000 Alexafluor 488 goat-anti-mouse (Invitrogen: Carlsbad, Calif.) was applied for two hours at room temperature. Coverslips were mounted with ProLong Gold anti-fade reagent (Invitrogen; Carlsbad, Calif.) and all washes were done with PBS. Imaging and analysis were performed as described above. […] In each instance the total number of spines was counted for the treatment groups, control, Nle1-AngIV and Dihexa, to ensure an active phenotype. The total number of actin enriched spines adjacent to VGLUT1 or Synapsin were counted and converted to a percentage as the percent correlation of treatment-induced spines to presynaptic markers is a strong indicator of ability to transmit excitatory signals.
Transfected neurons were treated, fixed and stained as previously described in Chapter two. […] In each instance the total number of spines was counted for the treatment groups, control, Nle1-AngIV and Dihexa, to ensure an active phenotype. […]

c-Met receptor = molecular target: T1, c-Met receptor (Rattus norvegicus, UniProt P97523); test: Effect of c-Met knock-down (shMet) on spinogenesis in hippocampal neurons; assay type: cell-based; conditions: HGF 10 ng/ml, 48 hours
T1 construct: Dissociated hippocampal neurons were transfected with mRFP-β-actin and shMet RNA; endogenous in cells; host or cells: dissociated hippocampal neurons from P1-2 Sprague Dawley rats
Excerpt: Neurons were transfected with mRFP-β-actin on day in vitro 6 (DIV6) using LipofectAMINE™ 2000 (Invitrogen) according to the manufacturer's protocol. This protocol yielded the desired 3-5% transfection efficiency thus enabling the visualization of individual neurons. Higher efficiencies obscured the dendritic arbor of individual neurons. Expression of fluorescently tagged actin allowed clear visualization of dendritic spines, as dendritic spines are enriched in actin. On DIV7 the cells were treated with vehicle (H20) or peptides (as described in the text) added to media. On DIV 12 the neurons were fixed (4% paraformaldehyde, 3% sucrose, 60 mM PIPES, 25 mM HEPES, 5 mM EGTA, 1 mM MgCl2, pH 7.4) for 20 min at room temperature and mounted. Slides were dried for at least 20 hours at 4° C. and fluorescent images were obtained with Slidebook 4.2 Digital Microscopy Software driving an Olympus IX81 inverted confocal microscope with a 60× oil immersion lens, NA 1.4 and resolution 0.280 μm Dendritic spine density was measured on primary and secondary dendrites at a distance of at least 150 μm from the soma. Five 50 μm long segments of dendrite from at least 10 neurons per data point were analyzed for each data point reported. Each experiment was repeated at least three times using independent culture preparations. Dendrite length was determined using the National Institutes of Health's Image J 1.41o program (NIH, Bethesda, Md.) and the neurite tracing program Neuron J (Meijering, Jacob et al. 2004) Spines were manually counted.
A target sequence for c-Met was designed using RNAi central design program (see the website located at cancan.cshl.edu/). […]. The shRNA was transfected into cells using the lipofectamine method described above. Verification of receptor knockdown was done by creating a c-Met-6-Myc tagged gene product using the Gateway cloning system (Invitrogen). […]

T1 sequence (P17945 33-495 partner limits assumed): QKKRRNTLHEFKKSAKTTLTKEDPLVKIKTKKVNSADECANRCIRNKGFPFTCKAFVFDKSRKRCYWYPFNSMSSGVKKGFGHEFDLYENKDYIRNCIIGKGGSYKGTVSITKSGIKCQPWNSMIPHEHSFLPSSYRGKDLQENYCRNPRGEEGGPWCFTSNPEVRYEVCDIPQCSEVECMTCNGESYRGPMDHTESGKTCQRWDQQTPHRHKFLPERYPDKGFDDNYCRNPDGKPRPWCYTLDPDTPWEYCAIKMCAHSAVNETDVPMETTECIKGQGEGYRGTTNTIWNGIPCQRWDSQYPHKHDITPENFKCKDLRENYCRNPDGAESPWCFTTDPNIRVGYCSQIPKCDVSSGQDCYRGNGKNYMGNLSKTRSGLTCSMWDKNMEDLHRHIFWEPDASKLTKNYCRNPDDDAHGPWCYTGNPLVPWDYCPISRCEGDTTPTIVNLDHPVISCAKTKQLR
T1 sequence (P17945 496-728 partner limits assumed): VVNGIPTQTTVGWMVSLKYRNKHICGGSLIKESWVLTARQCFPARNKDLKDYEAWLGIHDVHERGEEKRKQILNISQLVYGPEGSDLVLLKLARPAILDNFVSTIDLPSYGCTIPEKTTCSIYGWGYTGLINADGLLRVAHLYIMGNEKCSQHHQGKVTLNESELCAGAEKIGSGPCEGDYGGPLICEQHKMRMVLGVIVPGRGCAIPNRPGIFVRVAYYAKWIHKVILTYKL
T1 sequence (P97523 25-1382): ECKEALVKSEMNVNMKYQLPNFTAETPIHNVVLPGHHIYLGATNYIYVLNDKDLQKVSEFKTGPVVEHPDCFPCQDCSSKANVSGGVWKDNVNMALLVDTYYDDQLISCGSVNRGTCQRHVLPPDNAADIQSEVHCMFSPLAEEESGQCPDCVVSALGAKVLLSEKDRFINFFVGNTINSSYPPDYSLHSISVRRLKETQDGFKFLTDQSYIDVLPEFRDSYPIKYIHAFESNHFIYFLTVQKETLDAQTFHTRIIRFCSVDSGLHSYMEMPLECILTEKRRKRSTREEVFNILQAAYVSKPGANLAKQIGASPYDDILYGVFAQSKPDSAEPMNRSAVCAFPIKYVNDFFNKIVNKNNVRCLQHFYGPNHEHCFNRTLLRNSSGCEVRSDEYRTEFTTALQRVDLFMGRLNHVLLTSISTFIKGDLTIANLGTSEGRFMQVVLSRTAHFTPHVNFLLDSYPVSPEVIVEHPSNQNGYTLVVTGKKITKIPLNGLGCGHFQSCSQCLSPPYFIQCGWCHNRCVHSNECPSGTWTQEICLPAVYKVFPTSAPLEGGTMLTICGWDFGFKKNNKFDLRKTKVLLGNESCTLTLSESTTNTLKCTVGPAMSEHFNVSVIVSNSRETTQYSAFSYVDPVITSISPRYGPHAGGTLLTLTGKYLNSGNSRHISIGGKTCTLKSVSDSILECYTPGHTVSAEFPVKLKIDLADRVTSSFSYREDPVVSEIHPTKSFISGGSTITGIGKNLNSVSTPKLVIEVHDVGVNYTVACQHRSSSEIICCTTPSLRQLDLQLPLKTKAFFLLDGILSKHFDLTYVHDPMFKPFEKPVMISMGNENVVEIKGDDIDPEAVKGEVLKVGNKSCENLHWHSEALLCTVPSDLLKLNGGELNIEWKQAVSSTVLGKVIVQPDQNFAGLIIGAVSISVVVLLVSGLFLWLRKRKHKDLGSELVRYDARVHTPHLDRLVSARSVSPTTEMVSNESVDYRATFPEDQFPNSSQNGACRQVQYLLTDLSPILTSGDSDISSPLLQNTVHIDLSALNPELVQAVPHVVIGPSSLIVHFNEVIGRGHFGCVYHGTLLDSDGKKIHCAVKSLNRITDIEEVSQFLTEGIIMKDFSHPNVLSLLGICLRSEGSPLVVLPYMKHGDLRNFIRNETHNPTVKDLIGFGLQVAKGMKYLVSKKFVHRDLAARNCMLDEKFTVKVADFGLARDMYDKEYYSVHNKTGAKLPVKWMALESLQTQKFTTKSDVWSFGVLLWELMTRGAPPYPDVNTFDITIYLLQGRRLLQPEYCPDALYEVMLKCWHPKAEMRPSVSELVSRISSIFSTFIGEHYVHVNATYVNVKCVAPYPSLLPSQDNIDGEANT

## HGF: carrier free adult recombinant Hepatocyte Growth Factor (R and D Systems)
Hippocampal neurons
  percent correlation of spines to Synapsin: 98%
c-Met receptor; neurons transfected with mRFP-β-actin alone
  mean spine numbers per 50 μm dendrite length: 20.6
c-Met receptor; neurons transfected with mRFP-β-actin and shMet
  mean spine numbers per 50 μm dendrite length: 12.4

From US8598118B2, “Hepatocyte growth factor mimics as therapeutic agents” (Washington State University, priority 2011, dated 2013)
